According to US10117916B2, “Peptides and combination of peptides for use in immunotherapy against CLL and other cancers” (immatics biotechnologies GmbH, priority 2015, dated 2018):

molecular target: HLA-A*02:01 (Homo sapiens, UniProt P04439, D140Y/D185E/D98H/E176V/E277Q/G131W/G231S/I119V/I121R/I166T/I218V/L300P/L318F/N151K/N90K/P208A/P217A/Q86G/Q94H/R138H/R169H/T345S); test: MHC binding assay: UV-ligand exchange with β2m ELISA (peptide exchange yield); details: MHC class I binding score; binding to HLA-A*02:01 ranged by peptide exchange yield (UV-ligand exchange, β2m ELISA)
From the text: Candidate peptides for T cell based therapies according to the present invention were further tested for their MHC binding capacity (affinity). The individual peptide-MHC complexes were produced by UV-ligand exchange, where a UV-sensitive peptide is cleaved upon UV-irradiation, and exchanged with the peptide of interest as analyzed. Only peptide candidates that can effectively bind and stabilize the peptide-receptive MHC molecules prevent dissociation of the MHC complexes. To determine the yield of the exchange reaction, an ELISA was performed based on the detection of the light chain (β2m) of stabilized MHC complexes. The assay was performed as generally described in Rodenko et al. (Rodenko et al., 2006).
96 well MAXISorp plates (NUNC) were coated over night with 2 ug/ml streptavidin in PBS at room temperature, washed 4× and blocked for 1 h at 37° C. in 2% BSA containing blocking buffer. Refolded HLA-A*02:01/MLA-001 monomers served as standards, covering the range of 15-500 ng/ml. Peptide-MHC monomers of the UV-exchange reaction were diluted 100 fold in blocking buffer. Samples were incubated for 1 h at 37° C., washed four times, incubated with 2 ug/ml HRP conjugated anti-β2m for 1 h at 37° C., washed again and detected with TMB solution that is stopped with […]. Absorption was measured at 450 nm. Candidate peptides that show a high exchange yield (preferably higher than 50%, most preferred higher than 75%) are generally preferred for a generation and production of antibodies or fragments thereof, and/or T cell receptors or fragments thereof, as they show sufficient avidity to the MHC molecules and prevent dissociation of the MHC complexes.

Substance | Peptide Exchange
325 (TLENGVPCV; listed as Homo sapiens) [compound 325] | ″+++″ (≥50 = +++)
168 (YLLDQSFVM; listed as Homo sapiens) [compound 168] | ″++++″ (≥75% = ++++)
132 (LVYEAIIMV; listed as Homo sapiens) [compound 132] | ″+++″ (≥50 = +++)
258 (RLDYITAEI; listed as Homo sapiens) [compound 258] | ″+++″ (≥50 = +++)
148 (SIVASLITV; listed as Homo sapiens) [compound 148] | ″+++″ (≥50 = +++)
139 (NLTDVVEKL; listed as Homo sapiens) [compound 139] | ″+++″ (≥50 = +++)
80 (VLIEDELEEL; listed as Homo sapiens) [compound 80] | ″++″ (≥20% = ++)
8 (ALAASALPALV; listed as Homo sapiens) [compound 8] | ″+++″ (≥50 = +++)
160 (SLSFLVPSL; listed as Homo sapiens) [compound 160] | ″+++″ (≥50 = +++)
233 (GIIDINVRL; listed as Homo sapiens) [compound 233] | ″++″ (≥20% = ++)
113 (KVPAEEVLVAV; listed as Homo sapiens) [compound 113] | ″+++″ (≥50 = +++)
152 (SLIRILQTI; listed as Homo sapiens) [compound 152] | ″+++″ (≥50 = +++)
167 (TLDTSKLYV; listed as Homo sapiens) [compound 167] | ″+++″ (≥50 = +++)
346 (VLVQVSPSL; listed as Homo sapiens) [compound 346] | ″+++″ (≥50 = +++)
338 (FLDMTNWNL; listed as Homo sapiens) [compound 338] | ″++++″ (≥75% = ++++)
361 (ILQEFESKL; listed as Homo sapiens) [compound 361] | ″+++″ (≥50 = +++)
352 (ALVFELHYV; listed as Homo sapiens) [compound 352] | ″+++″ (≥50 = +++)
243 (ILPTLEKELFL; listed as Homo sapiens) [compound 243] | ″+++″ (≥50 = +++)
239 (ILAGEMLSV; listed as Homo sapiens) [compound 239] | ″+++″ (≥50 = +++)
383 (YLLREWVNL; listed as Homo sapiens) [compound 383] | ″++++″ (≥75% = ++++)
103 (KLGGTPAPA; listed as Homo sapiens) [compound 103] | ″++″ (≥20% = ++)
174 (VLAELPIIVV; listed as Homo sapiens) [compound 174] | ″+++″ (≥50 = +++)
385 (YTIPLAIKL; listed as Homo sapiens) [compound 385] | ″+++″ (≥50 = +++)
356 (FLHDHQAEL; listed as Homo sapiens) [compound 356] | ″++″ (≥20% = ++)

Substance | Peptide Exchange
265 (TLLADDLEIKL; listed as Homo sapiens) [compound 265] | ″+++″ (≥50 = +++)
351 (ALSEKLARL; listed as Homo sapiens) [compound 351] | ″+++″ (≥50 = +++)
106 (FMASHLDYL; listed as Homo sapiens) [compound 106] | ″+++″ (≥50 = +++)
92 (ILEPLNPLL; listed as Homo sapiens) [compound 92] | ″+++″ (≥50 = +++)
234 (GLDDAEYAL; listed as Homo sapiens) [compound 234] | ″++″ (≥20% = ++)
191 (YIFDGSDGGV; listed as Homo sapiens) [compound 191] | ″+++″ (≥50 = +++)
264 (TILDYINVV; listed as Homo sapiens) [compound 264] | ″+++″ (≥50 = +++)
225 (ILQERELLPV; listed as Homo sapiens) [compound 225] | ″+++″ (≥50 = +++)
313 (LMADLEGLHL; listed as Homo sapiens) [compound 313] | ″+++″ (≥50 = +++)
38 (FIMEGGAMV; listed as Homo sapiens) [compound 38] | ″+++″ (≥50 = +++)
37 (FIMEGGAMVL; listed as Homo sapiens) [compound 37] | ″++++″ (≥75% = ++++)
6 (ALDTLEDDMTI; listed as Homo sapiens) [compound 6] | ″+++″ (≥50 = +++)
253 (NLWSVDGEVTV; listed as Homo sapiens) [compound 253] | ″+++″ (≥50 = +++)
375 (VLWFKPVEL; listed as Homo sapiens) [compound 375] | ″+++″ (≥50 = +++)
207 (IIADLDTTIMFA; listed as Homo sapiens) [compound 207] | ″+++″ (≥50 = +++)
193 (YLDLSNNRL; listed as Homo sapiens) [compound 193] | ″+++″ (≥50 = +++)
372 (SLFGPLPGPGPALV; listed as Homo sapiens) [compound 372] | ″+++″ (≥50 = +++)
146 (SIIEGPIIKL; listed as Homo sapiens) [compound 146] | ″+++″ (≥50 = +++)
378 (YILGKFFAL; listed as Homo sapiens) [compound 378] | ″+++″ (≥50 = +++)
147 (SILETVATL; listed as Homo sapiens) [compound 147] | ″+++″ (≥50 = +++)
269 (TLTDEQFLV; listed as Homo sapiens) [compound 269] | ″++″ (≥20% = ++)
91 (ILDLNTYNV; listed as Homo sapiens) [compound 91] | ″+++″ (≥50 = +++)
13 (VVDGMPPGV; listed as Homo sapiens) [compound 13] | ″+++″ (≥50 = +++)
187 (VMDTHLVNI; listed as Homo sapiens) [compound 187] | ″++++″ (≥75% = ++++)

Substance | Peptide Exchange
25 (ATYSGLESQSV; listed as Homo sapiens) [compound 25] | ″++″ (≥20% = ++)
280 (YTLDSLYWSV; listed as Homo sapiens) [compound 280] | ″+++″ (≥50 = +++)
195 (YLGGFALSV; listed as Homo sapiens) [compound 195] | ″++++″ (≥75% = ++++)
306 (VVAEELENV; listed as Homo sapiens) [compound 306] | ″++″ (≥20% = ++)
64 (KLLESVASA; listed as Homo sapiens) [compound 64] | ″+++″ (≥50 = +++)
16 (ALPGGAAVAAV; listed as Homo sapiens) [compound 16] | ″++++″ (≥75% = ++++)
304 (LAIVPVNTL; listed as Homo sapiens) [compound 304] | ″+″ (≥10% = +)
133 (YLLSGDISEA; listed as Homo sapiens) [compound 133] | ″+++″ (≥50 = +++)
308 (SLYDVSRMYV; listed as Homo sapiens) [compound 308] | ″++++″ (≥75% = ++++)
331 (VLWELAHLPTL; listed as Homo sapiens) [compound 331] | ″+++″ (≥50 = +++)
266 (TLLDQLDTQL; listed as Homo sapiens) [compound 266] | ″++″ (≥20% = ++)
302 (ILQDLTFVHL; listed as Homo sapiens) [compound 302] | ″+++″ (≥50 = +++)
229 (FLLNLQNCHL; listed as Homo sapiens) [compound 229] | ″++++″ (≥75% = ++++)
176 (VLAEQNIIPSA; listed as Homo sapiens) [compound 176] | ″+++″ (≥50 = +++)
52 (FLVETGFLHV; listed as Homo sapiens) [compound 52] | ″++++″ (≥75% = ++++)
288 (GLAESTGLLAV; listed as Homo sapiens) [compound 288] | ″+++″ (≥50 = +++)
263 (SQWEDIHVV; listed as Homo sapiens) [compound 263] | ″+++″ (≥50 = +++)
134 (MLLEHGITLV; listed as Homo sapiens) [compound 134] | ″++++″ (≥75% = ++++)
224 (AMEALVVEV; listed as Homo sapiens) [compound 224] | ″+++″ (≥50 = +++)
364 (KMDWIFHTI; listed as Homo sapiens) [compound 364] | ″+++″ (≥50 = +++)
78 (GLPSFLTEV; listed as Homo sapiens) [compound 78] | ″+++″ (≥50 = +++)
151 (SLFDSAYGA; listed as Homo sapiens) [compound 151] | ″+++″ (≥50 = +++)
183 (VLMPTVYQQGV; listed as Homo sapiens) [compound 183] | ″+++″ (≥50 = +++)
